In US20250136677A1 (ZOETIS SERVICES, published 2025):
Where a chain is given by its changes, count along the chain named.

Assays:
[1] = molecular target: T1, canine IL-31 protein (Canine_IL31) (canine)
T1 chain: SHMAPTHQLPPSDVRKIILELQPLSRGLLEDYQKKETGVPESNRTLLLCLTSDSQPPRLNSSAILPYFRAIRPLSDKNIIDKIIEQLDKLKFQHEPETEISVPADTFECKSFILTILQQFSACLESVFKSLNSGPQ

[2] = molecular target: T1, canine IL-31 protein (Canine_IL31); test: SPR (Biacore), IL-31 on chip, 1:1 fit
[3] = molecular target: T2, wildtype feline IL-31 protein (Feline_IL31_wildtype) (feline); test: indirect ELISA, IL-31 protein coated
T2 construct: Full length feline IL-31 with C-terminal His tag, secreted from ExpiCHO cells; also called fIL-31
T2 chain: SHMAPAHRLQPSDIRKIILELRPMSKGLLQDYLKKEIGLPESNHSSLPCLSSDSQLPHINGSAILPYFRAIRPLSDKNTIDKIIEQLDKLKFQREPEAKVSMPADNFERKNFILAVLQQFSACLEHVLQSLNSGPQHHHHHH

[4] = molecular target: T3, mutant feline IL-31 15H05 protein (Feline_IL31_15H05_mutant) (feline); test: indirect ELISA, IL-31 protein coated
T3 construct: also called feline 15H05 mutant; 15H05 IL-31 mutant
T3 chain: T2 chain with P103A, D105A

[5] = molecular target: T3, mutant feline IL-31 15H05 protein …; test: SPR (Biacore), IL-31 protein as surface capture; Biacore KD of Table 1, mutant IL-31 as surface capture; weak binding, about 78 times weaker than on wildtype feline
Procedure: The affinity with which candidate mAbs bind canine and feline IL-31 was determined using surface plasmon resonance (SPR) on a Biacore system (Biocore Life Sciences (GE Healthcare), Uppsala, Sweden). To avoid affinity differences associated with differential surface preparation that can occur when immobilizing antibodies to surfaces; a strategy was employed where IL-31 was directly conjugated to the surface. Immobilization was obtained by amine coupling 5 μg/mL IL-31 using N-hydroxysuccinimide (NHS)/1-Ethyl-3-(3-dimethylaminopropyl) carbodiimide (EDC) chemistry. Chips were quenched with ethanolamine and the affinity with which all candidate mAbs bound to the immobilized IL-31 was evaluated. All curves were fit to a 1:1 model. […] Results for affinity measurements are described herein.
Table 1 below describes the results for biacore analysis using multiple species of IL-31 protein as a surface capture.

B1: mouse anti IL-31 antibody 15H05 (antibody, mouse IgG1, kappa)
heavy: QVQLQQSAAELARPGASVKMSCKTSGYTFTSYTIHWIKQRPGQGLEWIGNINPTSGYTENNQRFKDKTTLTVDRSSNTAYLQLHSLTSEDSAVYFCARWGFKYDGEWSFDVWGAGTTVTVSSKTTPPSVYPLAPGSAAQTNSMVTLGCLVKGYFPEPVTVTWNSGSLSSGVHTFPAVLESDLYTLSSSVTVPSSPRPSETVTCNVAHPASSTKVDKKIVPRDCGCKPCICTVPEVSSVFIFPPKPKDVLTITLTPKVTCVVVDISKDDPEVQFSWFVDDVEVHTAQTQPREEQFNSTFRSVSELPIMHQDWLNGKEFKCRVNSAAFPAPIEKTISKTKGRPKAPQVYTIPPPKEQMAKDKVSLTCMITDFFPEDITVEWQWNGQPAENYKNTQPIMNTNGSYFVYSKLNVQKSNWEAGNTFTCSVLHEGLHNHHTEKSLSHSPGK
light: DIQMNQSPSSLSASLGDTITVTCRASQGISIWLSWYQQKPGNIPKVLINKASNLHIGVPPRFSGSGSGTHFTLTITSLQPEDIATYYCLQSQTYPLTFGGGTKLEINADAAPTVSIFPPSSEQLTSGGASVVCFLNNFYPKDINVKWKIDGSERQNGVLNSWTDQDSKDSTYSMSSTLTLTKDEYERHNSYTCEATHKTSTSPIVKSFNRNEC
notes: Mouse hybridoma antibody, IgG1 kappa; also called Mu-15H05; MU-15H05
IC50, inhibition of canine IL-31-induced STAT3 phosphorylation, feline FCWF4 cells [1]: 25.7 µg/mL
koff [2]: 6.56e-07 s⁻¹
kon [2]: 135000 M⁻¹ s⁻¹
ELISA OD [3]: 1.94 OD
ELISA OD [4]: 0.05 OD
Kd [5]: 23.9 nM
